According to patent publication US20230304047A1:

Target: wildtype S. pyogenes Cas9 (S. pyogenes) (UniProt Q99ZW2)
Test: cell-based or functional assay

UniProt Q99ZW2, sequence (Q99ZW2 whole entry): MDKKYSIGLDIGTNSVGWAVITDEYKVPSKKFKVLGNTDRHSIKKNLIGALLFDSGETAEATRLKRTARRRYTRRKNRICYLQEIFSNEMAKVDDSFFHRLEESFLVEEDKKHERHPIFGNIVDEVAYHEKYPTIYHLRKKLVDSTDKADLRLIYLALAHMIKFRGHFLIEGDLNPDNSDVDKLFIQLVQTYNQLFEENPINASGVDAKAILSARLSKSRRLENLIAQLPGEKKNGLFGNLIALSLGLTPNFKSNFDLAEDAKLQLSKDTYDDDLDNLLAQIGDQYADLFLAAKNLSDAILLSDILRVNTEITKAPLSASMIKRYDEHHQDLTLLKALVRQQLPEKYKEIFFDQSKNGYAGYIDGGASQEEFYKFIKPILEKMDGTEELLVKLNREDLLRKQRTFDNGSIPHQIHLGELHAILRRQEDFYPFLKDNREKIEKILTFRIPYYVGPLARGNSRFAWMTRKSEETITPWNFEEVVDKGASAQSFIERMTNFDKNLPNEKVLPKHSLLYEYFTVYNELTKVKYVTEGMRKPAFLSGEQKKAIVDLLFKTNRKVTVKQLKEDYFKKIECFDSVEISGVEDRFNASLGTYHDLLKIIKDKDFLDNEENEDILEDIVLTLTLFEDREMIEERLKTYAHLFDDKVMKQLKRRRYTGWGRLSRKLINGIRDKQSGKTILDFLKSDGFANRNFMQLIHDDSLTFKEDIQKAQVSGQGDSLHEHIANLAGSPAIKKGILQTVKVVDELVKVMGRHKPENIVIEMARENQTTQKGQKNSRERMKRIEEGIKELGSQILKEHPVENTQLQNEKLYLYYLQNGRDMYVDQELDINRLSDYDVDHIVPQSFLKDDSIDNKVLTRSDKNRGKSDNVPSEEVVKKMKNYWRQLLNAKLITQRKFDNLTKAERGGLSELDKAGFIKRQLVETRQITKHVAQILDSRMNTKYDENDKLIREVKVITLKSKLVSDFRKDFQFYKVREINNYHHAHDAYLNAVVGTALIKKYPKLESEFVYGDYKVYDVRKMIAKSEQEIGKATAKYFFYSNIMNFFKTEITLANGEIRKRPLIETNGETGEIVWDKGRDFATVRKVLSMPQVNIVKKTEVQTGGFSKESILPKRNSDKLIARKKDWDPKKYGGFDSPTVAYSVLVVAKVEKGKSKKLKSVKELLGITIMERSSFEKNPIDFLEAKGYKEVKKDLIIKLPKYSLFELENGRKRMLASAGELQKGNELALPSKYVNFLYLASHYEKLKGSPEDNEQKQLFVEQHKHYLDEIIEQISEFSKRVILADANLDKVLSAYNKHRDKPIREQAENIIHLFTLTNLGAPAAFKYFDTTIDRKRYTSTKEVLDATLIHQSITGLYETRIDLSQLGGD

Substance: AcrIIA2-Cdt1 fusion protein
- HDR (GFP correction) in RPE1 reporter cells deficient of p53, AcrIIA2-Cdt1 protein co-transfected with WT CRISPR-Cas9 RNP: 2 fold
- HDR (GFP correction) in RPE1 reporter cells, AcrIIA2-Cdt1 protein co-transfected with WT CRISPR-Cas9 RNP: 3 fold
